Experimental data taken from patent US20240052042A1 (Novartis, published 2024).

Experiments:
[1] = molecular target: T1, human NPR1 on CHO-K1 cells (human, UniProt P16066 33-1061); assay: cell-based or functional assay
T1 sequence: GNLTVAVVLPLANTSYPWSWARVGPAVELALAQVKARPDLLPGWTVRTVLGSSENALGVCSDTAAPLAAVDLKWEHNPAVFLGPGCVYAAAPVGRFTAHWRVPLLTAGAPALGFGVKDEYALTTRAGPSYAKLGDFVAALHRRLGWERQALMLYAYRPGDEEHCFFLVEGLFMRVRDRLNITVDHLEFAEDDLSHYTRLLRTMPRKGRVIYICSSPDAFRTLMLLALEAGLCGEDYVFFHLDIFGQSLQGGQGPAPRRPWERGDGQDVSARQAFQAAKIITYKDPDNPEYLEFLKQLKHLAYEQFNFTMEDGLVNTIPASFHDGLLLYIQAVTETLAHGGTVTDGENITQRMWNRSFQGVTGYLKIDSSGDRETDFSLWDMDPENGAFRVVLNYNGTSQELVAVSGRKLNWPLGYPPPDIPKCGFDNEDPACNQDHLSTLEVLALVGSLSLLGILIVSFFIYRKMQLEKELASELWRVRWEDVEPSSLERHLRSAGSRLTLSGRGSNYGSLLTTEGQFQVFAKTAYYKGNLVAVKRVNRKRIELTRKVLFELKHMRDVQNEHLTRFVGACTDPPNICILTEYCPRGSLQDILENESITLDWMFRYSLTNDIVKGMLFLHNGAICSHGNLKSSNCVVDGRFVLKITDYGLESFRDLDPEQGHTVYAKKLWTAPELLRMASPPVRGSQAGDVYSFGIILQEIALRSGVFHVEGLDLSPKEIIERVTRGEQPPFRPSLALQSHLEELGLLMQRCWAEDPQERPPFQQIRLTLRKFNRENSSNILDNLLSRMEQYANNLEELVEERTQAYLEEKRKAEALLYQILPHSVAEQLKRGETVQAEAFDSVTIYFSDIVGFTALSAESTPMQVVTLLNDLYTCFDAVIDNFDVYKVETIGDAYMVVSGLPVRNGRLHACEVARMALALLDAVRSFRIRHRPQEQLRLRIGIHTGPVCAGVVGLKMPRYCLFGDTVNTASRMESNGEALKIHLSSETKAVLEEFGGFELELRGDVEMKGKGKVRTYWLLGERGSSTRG

[2] = molecular target: constitutively active human NPR1 mutant (W74R) (human) (UniProt P16066); assay: ELISA, 1 µM IgG
[3] = molecular target: W74R hNPR1 mutant in the presence of ANP (human) (UniProt P01160); assay: ELISA, 1 µM IgG
[4] = molecular target: T2, human NPR3 in the presence of ANP (human, UniProt P17342 27-481; P01160 124-151, limits assumed); assay: ELISA, 1 µM IgG; design: unit not given here
T2 construct: also called hNPR3 + 100 nM ANP
T2 sequence (looked up): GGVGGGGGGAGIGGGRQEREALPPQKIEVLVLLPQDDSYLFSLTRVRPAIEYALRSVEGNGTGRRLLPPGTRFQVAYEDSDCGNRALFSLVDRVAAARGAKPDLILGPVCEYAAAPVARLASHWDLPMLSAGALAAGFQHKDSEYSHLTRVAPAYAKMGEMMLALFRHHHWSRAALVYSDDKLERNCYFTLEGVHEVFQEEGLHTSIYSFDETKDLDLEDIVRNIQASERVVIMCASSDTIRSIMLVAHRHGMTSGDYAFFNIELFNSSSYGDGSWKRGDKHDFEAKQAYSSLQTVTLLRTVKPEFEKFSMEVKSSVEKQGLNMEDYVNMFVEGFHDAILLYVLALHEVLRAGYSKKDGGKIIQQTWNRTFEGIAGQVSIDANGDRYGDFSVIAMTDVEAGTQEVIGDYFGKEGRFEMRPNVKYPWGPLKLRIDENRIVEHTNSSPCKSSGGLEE
T2 sequence (peptide, looked up): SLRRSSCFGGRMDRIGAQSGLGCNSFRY

rat NPR1 (rNPR1) = molecular target: T3, rat NPR1 (rNPR1) (rat, UniProt P18910 29-469, limits assumed); assay: ELISA, 1 µM IgG; design: unit not given here
T3 construct: Soluble antigen
T3 sequence: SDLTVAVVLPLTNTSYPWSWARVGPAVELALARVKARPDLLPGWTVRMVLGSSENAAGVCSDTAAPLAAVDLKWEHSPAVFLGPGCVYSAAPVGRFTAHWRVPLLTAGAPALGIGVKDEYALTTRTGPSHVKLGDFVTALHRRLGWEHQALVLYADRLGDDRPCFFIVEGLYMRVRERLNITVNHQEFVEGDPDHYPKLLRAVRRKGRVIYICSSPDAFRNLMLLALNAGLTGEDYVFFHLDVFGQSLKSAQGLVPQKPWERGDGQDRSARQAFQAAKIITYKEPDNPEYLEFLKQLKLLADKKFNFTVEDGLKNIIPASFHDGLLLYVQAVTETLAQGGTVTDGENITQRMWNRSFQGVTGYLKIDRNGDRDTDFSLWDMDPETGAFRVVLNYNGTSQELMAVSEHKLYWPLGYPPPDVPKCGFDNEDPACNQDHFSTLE

[5] = molecular target: T4, human Natriuretic Peptide Receptor 1 (hNPR1) (human, UniProt P16066 33-473, limits assumed); assay: ELISA, 1 µM IgG; design: unit not given here
T4 construct: pannings used NPR1-hFc; also called NPR1-hFc
T4 sequence: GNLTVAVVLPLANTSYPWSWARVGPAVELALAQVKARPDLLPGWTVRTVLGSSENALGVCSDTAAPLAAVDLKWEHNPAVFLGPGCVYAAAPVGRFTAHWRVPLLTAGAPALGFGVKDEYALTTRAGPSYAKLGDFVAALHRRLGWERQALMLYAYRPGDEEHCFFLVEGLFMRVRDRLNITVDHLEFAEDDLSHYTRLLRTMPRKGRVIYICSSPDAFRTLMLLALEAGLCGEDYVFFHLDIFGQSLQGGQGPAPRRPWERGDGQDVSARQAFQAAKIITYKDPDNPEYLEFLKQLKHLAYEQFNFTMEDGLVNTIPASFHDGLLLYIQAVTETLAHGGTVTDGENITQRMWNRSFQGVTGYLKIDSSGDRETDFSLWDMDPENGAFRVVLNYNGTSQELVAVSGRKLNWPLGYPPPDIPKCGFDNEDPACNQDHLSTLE

hNPR1-ANP complex = molecular target: T5, hNPR1-ANP complex (human, UniProt P01160 124-151, limits assumed); assay: ELISA, 1 µM IgG; design: unit not given here
T5 construct: hNPR1 antigen in the presence of ANP; also called hNPR1 + 100 nM ANP
T5 sequence: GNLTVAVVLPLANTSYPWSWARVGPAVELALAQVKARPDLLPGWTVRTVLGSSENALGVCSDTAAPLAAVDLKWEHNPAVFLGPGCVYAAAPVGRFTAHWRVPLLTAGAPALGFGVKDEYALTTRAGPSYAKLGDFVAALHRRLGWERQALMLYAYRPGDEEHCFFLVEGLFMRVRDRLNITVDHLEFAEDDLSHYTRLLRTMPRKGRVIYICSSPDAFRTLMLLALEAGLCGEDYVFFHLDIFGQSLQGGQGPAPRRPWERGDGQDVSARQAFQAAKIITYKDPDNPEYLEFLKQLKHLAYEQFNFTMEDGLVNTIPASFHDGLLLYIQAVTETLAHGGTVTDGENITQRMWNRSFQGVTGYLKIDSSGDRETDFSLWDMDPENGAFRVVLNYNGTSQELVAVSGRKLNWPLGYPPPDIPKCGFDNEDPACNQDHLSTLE
T5 sequence (peptide): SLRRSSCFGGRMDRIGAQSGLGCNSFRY

[6] = molecular target: T6, human NPR3 (counter target) (human, UniProt P17342 27-481, limits assumed); assay: ELISA, 1 µM IgG; design: unit not given here
T6 construct: Pannings used hNPR3-hFc; also called hNPR3; hNPR3-hFc
T6 sequence (looked up): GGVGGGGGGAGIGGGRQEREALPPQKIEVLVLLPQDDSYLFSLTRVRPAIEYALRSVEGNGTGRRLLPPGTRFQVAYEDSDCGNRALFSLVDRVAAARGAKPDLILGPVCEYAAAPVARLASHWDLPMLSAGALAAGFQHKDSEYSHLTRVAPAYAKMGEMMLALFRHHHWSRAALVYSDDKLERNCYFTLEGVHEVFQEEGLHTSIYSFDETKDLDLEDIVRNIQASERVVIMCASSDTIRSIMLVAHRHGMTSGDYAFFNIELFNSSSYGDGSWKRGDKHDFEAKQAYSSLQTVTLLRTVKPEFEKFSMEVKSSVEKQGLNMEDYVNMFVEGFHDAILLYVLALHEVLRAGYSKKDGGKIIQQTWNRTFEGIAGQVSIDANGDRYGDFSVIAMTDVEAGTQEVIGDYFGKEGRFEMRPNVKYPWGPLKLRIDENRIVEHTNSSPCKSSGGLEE

rNPR1-ANP complex = molecular target: T7, rNPR1-ANP complex (rat, UniProt P01160 124-151 (human entry), limits assumed); assay: ELISA, 1 µM IgG; design: unit not given here
T7 construct: rNPR1 antigen in the presence of ANP; also called rNPR1 + 100 nM ANP
T7 sequence: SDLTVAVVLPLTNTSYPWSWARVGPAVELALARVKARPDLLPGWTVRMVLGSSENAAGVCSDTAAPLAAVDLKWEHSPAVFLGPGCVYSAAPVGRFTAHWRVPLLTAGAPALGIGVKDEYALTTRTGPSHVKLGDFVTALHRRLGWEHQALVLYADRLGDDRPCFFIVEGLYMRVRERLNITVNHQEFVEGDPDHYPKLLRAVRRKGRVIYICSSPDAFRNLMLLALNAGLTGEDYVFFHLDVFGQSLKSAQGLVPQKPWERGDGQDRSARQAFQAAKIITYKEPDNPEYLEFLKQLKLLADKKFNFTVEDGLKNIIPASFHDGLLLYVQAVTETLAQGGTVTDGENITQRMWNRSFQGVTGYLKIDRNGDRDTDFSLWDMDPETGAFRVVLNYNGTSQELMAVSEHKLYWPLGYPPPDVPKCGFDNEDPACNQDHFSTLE
T7 sequence (peptide): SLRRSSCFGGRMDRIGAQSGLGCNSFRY

[7] = molecular target: constitutively active human NPR1 mutant (W74R) (human) (UniProt P16066); assay: ELISA, IgG titrated on coated antigen, fluorescence [Cont.]
[8] = molecular target: T8, human NPR1 on CHO-K1 cells in the presence of ANP (human, UniProt P01160 124-151); assay: flow cytometry, hNPR1 CHO-K1 cells, IgG
T8 construct: also called hNPR1 CHO K1 + 100 nM ANP
T8 sequence: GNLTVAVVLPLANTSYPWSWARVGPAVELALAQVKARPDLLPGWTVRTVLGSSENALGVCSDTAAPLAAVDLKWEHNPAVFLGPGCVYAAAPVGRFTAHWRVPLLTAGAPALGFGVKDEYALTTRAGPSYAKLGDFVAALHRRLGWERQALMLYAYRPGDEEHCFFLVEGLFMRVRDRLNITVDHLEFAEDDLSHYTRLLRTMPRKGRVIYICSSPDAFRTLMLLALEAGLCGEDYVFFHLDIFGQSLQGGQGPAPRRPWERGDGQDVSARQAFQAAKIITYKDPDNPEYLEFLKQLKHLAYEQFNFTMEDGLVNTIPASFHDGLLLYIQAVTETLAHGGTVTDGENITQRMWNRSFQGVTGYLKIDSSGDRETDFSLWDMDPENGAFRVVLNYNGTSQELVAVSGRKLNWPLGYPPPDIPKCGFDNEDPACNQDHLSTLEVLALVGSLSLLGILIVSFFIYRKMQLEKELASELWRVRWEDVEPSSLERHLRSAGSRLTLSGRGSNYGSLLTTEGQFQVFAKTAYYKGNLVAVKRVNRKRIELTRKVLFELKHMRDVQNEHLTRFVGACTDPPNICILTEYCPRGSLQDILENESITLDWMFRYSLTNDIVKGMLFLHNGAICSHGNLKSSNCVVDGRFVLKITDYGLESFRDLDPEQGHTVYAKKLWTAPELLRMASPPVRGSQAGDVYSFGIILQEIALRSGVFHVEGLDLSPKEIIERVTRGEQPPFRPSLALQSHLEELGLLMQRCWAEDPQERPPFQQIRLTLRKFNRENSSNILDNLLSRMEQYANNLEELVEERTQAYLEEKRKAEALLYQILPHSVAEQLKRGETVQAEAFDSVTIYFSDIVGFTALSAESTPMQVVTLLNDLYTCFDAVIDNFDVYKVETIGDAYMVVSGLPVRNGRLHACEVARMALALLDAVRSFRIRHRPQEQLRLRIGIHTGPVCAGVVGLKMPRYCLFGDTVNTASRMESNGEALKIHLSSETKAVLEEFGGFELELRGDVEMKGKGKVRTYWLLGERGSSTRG
T8 sequence (peptide): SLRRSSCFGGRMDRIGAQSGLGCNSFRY

[9] = molecular target: T1, human NPR1 on CHO-K1 cells; assay: flow cytometry, hNPR1 CHO-K1 cells, IgG

- cGMP conc [nM] at 1 µM IgG, +0.075 nM ANP [1]: 15 nM
- cGMP conc [nM] at 1 µM IgG, without ANP [1]: 13 nM
- ELISA binding at 1 µM IgG [2]: 69
- ELISA binding at 1 µM IgG [3]: 23
- ELISA binding at 1 µM IgG [4]: 4
- ELISA binding at 1 µM IgG (rat NPR1 (rNPR1)): 11
- ELISA binding at 1 µM IgG [5]: 81
- ELISA binding at 1 µM IgG (hNPR1-ANP complex): 32
- ELISA binding at 1 µM IgG [6]: 7
- ELISA binding at 1 µM IgG (rNPR1-ANP complex): 16
- EC50 (read off the curve) [7]: 1 nM
- flow cytometry S/BG at 1 µM IgG [8]: 5 S/BG
- flow cytometry S/BG at 1 µM IgG [9]: 15 S/BG
B1: YY05 (IgG format) (antibody, V domains shown)
VH: EVQLVQSGAEVKKPGESLKISCKGSGYSFTSYWISWVRQMPGKGLEWMGIIYPGTSYTRYSPSFQGQVTISADKSISTAYLQWSSLKASDTAMYYCARGAVAGQLGFDHWGQGTLVTVSS
VL: QSVLTQPPSVSGAPGQRVTISCTGSSSNIGAGYDVHWYQQLPGTAPKLLIYGNSNRPSGVPDRFSGSKSGTSASLAITGLQAEDEADYYCQSYYTSSHGPVFGGGTKLTVLG
notes: also called YY05_LALA
